Molecular target: T1, FcγRIa extracellular domain with C-terminal His tag (human, UniProt P12314 16-292)
T1 construct: extracellular domain; also called FcgRI; CD64; not shown: His tag at the C terminus
Assay: SPR Biacore, relative FcγRIa binding vs GpH7-B3/GpL16-k0

T1 sequence (P12314 16-292): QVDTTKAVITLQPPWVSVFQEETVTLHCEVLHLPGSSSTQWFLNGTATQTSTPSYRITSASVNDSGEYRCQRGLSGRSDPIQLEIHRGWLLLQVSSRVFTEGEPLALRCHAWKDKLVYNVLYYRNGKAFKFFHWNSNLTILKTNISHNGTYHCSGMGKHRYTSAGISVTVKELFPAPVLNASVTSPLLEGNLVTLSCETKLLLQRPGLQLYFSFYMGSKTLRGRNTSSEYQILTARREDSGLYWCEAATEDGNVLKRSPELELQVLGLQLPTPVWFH

Binder | Ho/Con_1a
GpH7-B3 variant P329_01G/GpL16-k0 (antibody, human IgG1, kappa, mutation in both H chains; also called Ho Ab P329_01G; P329G) heavy: not shown light: DIVMTQSPLSLPVTPGEPASISCQASESLVHSNRNTYLHWYLQKPGQSPQLLIYKVSNRFSGVPDRFSGSGSGTDFTLKISRVEAEDVGVYYCSQNTHVPPTFGQGTKVEIERTVAAPSVFIFPPSDEQLKSGTASVVCLLNNFYPREAKVQWKVDNALQSGNSQESVTEQDSKDSTYSLSSTLTLSKADYEKHKVYACEVTHQGLSSPVTKSFNRGEC | 89.5 % of HoCon Ab (=100)
GpH7-B3 variant Q295_03V/GpL16-k0 (antibody, human IgG1, kappa, mutation in both H chains; also called Ho Ab Q295_03V; Q295V) heavy: not shown light: DIVMTQSPLSLPVTPGEPASISCQASESLVHSNRNTYLHWYLQKPGQSPQLLIYKVSNRFSGVPDRFSGSGSGTDFTLKISRVEAEDVGVYYCSQNTHVPPTFGQGTKVEIERTVAAPSVFIFPPSDEQLKSGTASVVCLLNNFYPREAKVQWKVDNALQSGNSQESVTEQDSKDSTYSLSSTLTLSKADYEKHKVYACEVTHQGLSSPVTKSFNRGEC | 102 % of HoCon Ab (=100)
GpH7-B3 variant P329_02A/GpL16-k0 (antibody, human IgG1, kappa, mutation in both H chains; also called Ho Ab P329_02A; P329A) heavy: not shown light: DIVMTQSPLSLPVTPGEPASISCQASESLVHSNRNTYLHWYLQKPGQSPQLLIYKVSNRFSGVPDRFSGSGSGTDFTLKISRVEAEDVGVYYCSQNTHVPPTFGQGTKVEIERTVAAPSVFIFPPSDEQLKSGTASVVCLLNNFYPREAKVQWKVDNALQSGNSQESVTEQDSKDSTYSLSSTLTLSKADYEKHKVYACEVTHQGLSSPVTKSFNRGEC | 98.2 % of HoCon Ab (=100)
GpH7-B3 variant Q295_08L/GpL16-k0 (antibody, human IgG1, kappa, mutation in both H chains; also called Ho Ab Q295_08L; Q295L) heavy: not shown light: DIVMTQSPLSLPVTPGEPASISCQASESLVHSNRNTYLHWYLQKPGQSPQLLIYKVSNRFSGVPDRFSGSGSGTDFTLKISRVEAEDVGVYYCSQNTHVPPTFGQGTKVEIERTVAAPSVFIFPPSDEQLKSGTASVVCLLNNFYPREAKVQWKVDNALQSGNSQESVTEQDSKDSTYSLSSTLTLSKADYEKHKVYACEVTHQGLSSPVTKSFNRGEC | 103 % of HoCon Ab (=100)
GpH7-B3 variant Q295_05P/GpL16-k0 (antibody, human IgG1, kappa, mutation in both H chains; also called Ho Ab Q295_05P; Q295P) heavy: not shown light: DIVMTQSPLSLPVTPGEPASISCQASESLVHSNRNTYLHWYLQKPGQSPQLLIYKVSNRFSGVPDRFSGSGSGTDFTLKISRVEAEDVGVYYCSQNTHVPPTFGQGTKVEIERTVAAPSVFIFPPSDEQLKSGTASVVCLLNNFYPREAKVQWKVDNALQSGNSQESVTEQDSKDSTYSLSSTLTLSKADYEKHKVYACEVTHQGLSSPVTKSFNRGEC | 101 % of HoCon Ab (=100)
GpH7-B3 variant Q295_07I/GpL16-k0 (antibody, human IgG1, kappa, mutation in both H chains; also called Ho Ab Q295_07I; Q295I) heavy: not shown light: DIVMTQSPLSLPVTPGEPASISCQASESLVHSNRNTYLHWYLQKPGQSPQLLIYKVSNRFSGVPDRFSGSGSGTDFTLKISRVEAEDVGVYYCSQNTHVPPTFGQGTKVEIERTVAAPSVFIFPPSDEQLKSGTASVVCLLNNFYPREAKVQWKVDNALQSGNSQESVTEQDSKDSTYSLSSTLTLSKADYEKHKVYACEVTHQGLSSPVTKSFNRGEC | 101 % of HoCon Ab (=100)
GpH7-B3 variant Q295_11K/GpL16-k0 (antibody, human IgG1, kappa, mutation in both H chains; also called Ho Ab Q295_11K; Q295K) heavy: not shown light: DIVMTQSPLSLPVTPGEPASISCQASESLVHSNRNTYLHWYLQKPGQSPQLLIYKVSNRFSGVPDRFSGSGSGTDFTLKISRVEAEDVGVYYCSQNTHVPPTFGQGTKVEIERTVAAPSVFIFPPSDEQLKSGTASVVCLLNNFYPREAKVQWKVDNALQSGNSQESVTEQDSKDSTYSLSSTLTLSKADYEKHKVYACEVTHQGLSSPVTKSFNRGEC | 99.9 % of HoCon Ab (=100)
GpH7-B3 variant Q295_04F/GpL16-k0 (antibody, human IgG1, kappa, mutation in both H chains; also called Ho Ab Q295_04F; Q295F) heavy: not shown light: DIVMTQSPLSLPVTPGEPASISCQASESLVHSNRNTYLHWYLQKPGQSPQLLIYKVSNRFSGVPDRFSGSGSGTDFTLKISRVEAEDVGVYYCSQNTHVPPTFGQGTKVEIERTVAAPSVFIFPPSDEQLKSGTASVVCLLNNFYPREAKVQWKVDNALQSGNSQESVTEQDSKDSTYSLSSTLTLSKADYEKHKVYACEVTHQGLSSPVTKSFNRGEC | 100 % of HoCon Ab (=100)
GpH7-B3 variant Q295_09D/GpL16-k0 (antibody, human IgG1, kappa, mutation in both H chains; also called Ho Ab Q295_09D; Q295D) heavy: not shown light: DIVMTQSPLSLPVTPGEPASISCQASESLVHSNRNTYLHWYLQKPGQSPQLLIYKVSNRFSGVPDRFSGSGSGTDFTLKISRVEAEDVGVYYCSQNTHVPPTFGQGTKVEIERTVAAPSVFIFPPSDEQLKSGTASVVCLLNNFYPREAKVQWKVDNALQSGNSQESVTEQDSKDSTYSLSSTLTLSKADYEKHKVYACEVTHQGLSSPVTKSFNRGEC | 96.8 % of HoCon Ab (=100)

Source: US20180155451A1 (published 2018)
